Measured values as given in the DeepSol protein solubility set.

Test: soluble on expression in E. coli; label from the status in PepcDB or PDB records

Sequence | soluble on expression in E. coli
MSLARTRILIVDDEDSIRFGMRDFLESRGYGVVDADSCQRARELFQASPPDVAVIDYRLHDGSAIDLLRDFRQIDADVPMIVLTAYGSIDLAVQAVKEGAEQFLTKPIEMPALHVILKRLLATRRLQRQQQVVATRDRRERVNPLSGGSPAIRDLAEQASKVMHTDSPILILGETGTGKSLLAKWLHHHGMRADEAFVDLNCAGLSPDFLETELFGHEKGAFTGATASKQGMLEIADGGTVFLDEIGDVDPRVQPKLLKVLEEKRFRRLGAVREREVDIRLIAATHHDLASKVKEGTFRSDLYFRISSIPLTMPALRDRKEDIVPLARTLLARSLADPSRTPQLTDDAALALREYAWPGNIREGHHHHHH | not soluble
MGSDKIHHHHHHMAFSFDSRIRYSEVDSSCRLSLTGLTNYFQDCSVFHSQSHDVGIRFLADNHIAWVLSSWQICINRLPLLNEQVKISTWAYGMKAFYGYRNFTLEDAGGSTLAYANSVWVLVDTRTGRPVKVPQEFADTYGLEPQLEMECAKRKLHIPDDMEKKGEIVVPQFFIDSNHHMNNEKYVMLAQQLLPNDFEISELRVEYRKEAKLGDTVISYVKYTSKSVTVVLADTDKKPYSVVEFLSKPVPGK | not soluble
MGSDKIHHHHHHMKLIAVGDNVVDYYQDQETFYPGGNALNVAVLAKRLGHESSYIGIVGNDEAAAHLLNVLKLEQVNADYIRQAHGENGMAIVTLDEQGDRIFVRSNKGGIQSRLRLAFQEKDVSFISGHDLLHTSVYSRLENDLPQLCGLVPVSFDFSTNREDDYLRRVCPYVTYAFFSGSDLSESECGELAKTAHGYGAKMVCMTRGGQGAILSAGDRVYHQPIVEADIIDTLGAGDSFIAGFLTAFCVKQDITYALRQAAETAAKTCGVYGAFGYGYPYRLEDGGSSEKTRIL | not soluble
MGSDKIHHHHHHAQTPQDSVRFIGYLPVRHTDPTKWITRYQSEIDRYQTENQMLKDTSCDVLFLGSSSINLWDNIYRDMAPLKILRRSYGGAALRDMLYNYDVIARGYHPRSIVIYVENDLAGTPEDLTVGETFDFFRLLTNRLQRDYPDIPIFILSYKPSLARKEMIPKHEIINALLQEYASKRGGLTYIDVASCLYDNNGKLRKDIFKQDGLHMNQNGYDLWTAILKPKILESIR | not soluble
MNTTGETTQPFYSHCDMNDPLCRAERLRTQFDYYRWHSLQPDDNDDVDTYTTDIATRIGKTQRYVCDHLDAIYYLTQLPQLHTVYQQLWHLDDTRLIAITRIISALPTTYYDAIDTHLTRWLTPTQPAQTIPSTRAITRFLRKTITHLGFHLDNTRKPEQYVYIYDAGHGLAGIDALIHAGVAEMFETTLRSIKKTHSCDDSTALQLLLEDKTSVVINVYDTGTGITYTPQGTALPQVPEHLVIRVLGDADVAVSTGYRFTEAMRRFIQGRDGVCRFPGCGVPAQWCDIDHVEEYDLGGVTGAVNAQCLCRHHHNVKTSRRVDCEIGAGGVVTWQIGDRRVVTTPEGVLAGQTFRQRREKKIKKAA | not soluble
MAHHHHHHMLRSTLTSLNTFLTSSVATPPISVIRTGPKWWADPERMVRQKLMYFTLGVDQLPLRRTAVIQRDLQRFHMCKPPPRVGDSTGYKRSRAAQLNTWYRRIQYQEYHMQHLFTRHVWGLLRVYPGNTTKIQGKADDGYVGYDSVPFHRYNRAPLPFPARELYERRK | not soluble
MASAQPLTALPAIPLPGDAGPVDELAAVIALLQTQPADSTGAATDLAARASALVGAPVTVLDERSGVLAGDPTRVAGQVAAPDGSVALGWGPAADDAERWRPLLTQACVWLSMIRRLDGAPAVEPESVAVREVVQQLLSVRDVDQVLTSIAERTLRLLDADICGVMLREGERVCMRACVGNRVAQTARLRMRRGQGLAGLVFDIGRPAKVDTYLEDRTISPDFMSLAEQEETRSALAVPLRLHGELIGVLEVWRRRPSTFTEHDEHRMVVLADIATVAIDNARLHDEQAASTVEAERARDELQQQVAMLNGSSRLQQKLLTTVIEGGGLPAVVHAVAIELGCEVGVFGPDGAMIATHTPGSTPASLPARLPVRARPATPGRWVRPVYADGDQVGQVVLIQGEASAELMDAVAGQVAMACSLALLRERAASRARAQAVDQVLWDLLQGPVQHRVAARSRAQQLGISLLGSLRVLHGQIENVEELAAEQGWDTSHTDKVRRGVLRAVRGVDEARRLPLTGMRGDLLVAVAADLDRASVKDLAAATCAAIHAEWPGLRLTWGVSRERANPMELPNALSEAETALAAARRLGGRNALLYEELGIVRLLLGSGNDPDLQTFIEEVTGPLIAYDRDNDGALIRTLRAFFDADCSQRVAAERLFVHHKTLRYRLERIRQLTGLDLSRHEDRMRADFALRLLQVNQTSDAIGD | not soluble
MKVVPAQRCVYSFSANMAPVEEVYPGEQVVFETLDALGGSYDKIDFSKVNPATGPVFVNGVKPGDTLKVRIKRIELPRRGMIVTGKGFGVLGDEVEGFHTKELEIEKWAVLFDGVRIPIHPMVGVIGVAPQEGEYPTGTAHRHGGNMDTKEITENVTVHLPVFQEGALLALGDVHATMGDGEVCVSACEVPAKVVVEIDVSKEEIKWPVVETNDAYYIIVSLPDIEEALKEVTRETVWFIQRRKTIPFTDAYMLASLSVDVGISQLVNPAKTAKARIPKYIFTGVLEHHHHHH | not soluble
IHTMWKGTISFGLVNIPIKLHAATENKDVRLRQLHKECKTPINYLKVCPNCDAEVEPNDIVKAYEYAKNKFVELDEEELASLKKEQEDKAVEIIDFVKLQEIDPIYFDKSYYMSPGDGGGKAYTLLREALAESEKIGVAKIIIRAKEHLAVIRVYKNTLLMETIHFPDEVRAVDQVPNVPE | not soluble
MGSDKIHHHHHHEIMTRENNDQETLKLIQENKLQAEGNIFANVSALKDQNKRFQDECHSEKKQFGIKVEETTAQNNDEVLKESAQTNHIKLGNQQNKLTHESRIMALKEGNTVTKIHVGQAQEKDRKETNFIAAVNRMIQAGRDLPETVDSLEGHTLKLRYGSDASALESDIGLCEIIVSSINRKISKLQDSCIDLSNYAIADHRMVQEMQKNALGINESVRRIQSHLTQFRVSLSDNPITNSMELYKKVQTESHSLSTKINSMPVVTETNHAVAYLRKQRETLALNLPTVA | not soluble
MWRLTRKIGTRIHISNQLSPIFNKAIGTVPVFRFYSSSPEQKYRKKLLEEAQKQGFNSIEELKNHLKETIESKKREFNKIDPLKELEDYQQKTQMENNNSKHLMTKSRSPLDPSAPKVPFKTLDSFLDVGKLKDLSKQEVEFLWRARWAQKDNTLCAVIPVSVYDKMMANARNNPIFVLPLPRQVQSEDAKPNEEQGMELHYIQWQFVGPQTTHCMMTSLAEYKLHQEFARPHTTLQFHSDLVKDKGIVFMNGHVEPDTNVNVQDAQLLLLNVQRFYGAMGEETPVAKQRVQLLRDFSKASPGFTVEKLISLSQSMEN | soluble
MGHHHHHHSHMKDSEKHIEVEVRKFLALKQTPDFHTVIGDTVTGLLERCKAEPSFYPRNCLMQLIQTHVLSYSLCPDLMEIALKKKDVQLLQLCLQQFPDIPESVTCACLKIFLSIGDDSLQETDVNMESVFDYSINSVHDEKMEEQTEILQNGFNPEEDKCNNCDQELNKKPQDETKESTSCPVVQKRAALLNAILHSAYSETFLLPHLKDIPAQHITLFLKYLYFLYLKCSENATMTLPGIHPPTLNQIMDWICLLLDANFTVVVMMPEAKRLLINLYKLVKSQISVYSELNKIEVSFRELQKLNQEKNNRGLYSIEVLELF | not soluble
MGSDKIHHHHHHMISHKKDQAAGLRELTALEPNAGVRVFAVVGGRTGVGKTSSVINLAVALAKTGKRVLILDENPRHKDVNANLGLSARYDLLHVINQDKTLEQVMTQGPEDVLVLTAMRGIHSLAKLSSADQERLIQCFSELSQTVDVVLIDTAIGRTSRVVPLSLASQQVLIVLSASGKAITDAYALIKLISQEYARRDFLVLVNKVESESMGRDIFENIAGVAQKHLAVKLEWMGCILFDEKLQRSTRLCQPVVEIFPTSASAAGYRQLAEKLMRCAGPWTDNDGVENFMRRLIRTSHLDIADFTV | not soluble
ASVLTVKDIARKKPAAVFKKSEHDGPGSAMQILMDHDRDYGIVVDKSSRYSGIVSLDSLRLAHKENRSLASAQLEDDVTLQPDQSVNDILGVVASVPYAVPVVDEQGTYFGVVTKSRLLQTLDKD | soluble
MTITQRDASSADAICLSALGMQVFLDTYATQGIRESIAREALDAFSPQAFAHLLAEPATLIIVAESQGHLIGFAQFALRTDHPMLGIPTAAELQRLYVQERFTGRGVGRLLLEAAEQRAAAGNATLLWATVWVGNPRALGVYPRQGYEVKGSPRYVFQGETHENCLFAKAIVKAVR | not soluble
